# Results: publication PMC8849274 (Oncotarget, 2022)
# How the values were obtained:
# Assay type in all cases: in vivo
# [1] = Biodistribution in mice bearing CaSki xenografts; conditions: female, athymic nude, mouse, iv, total radioactivity; for tissue uptake at 1 h: 1 h p.i.; for tissue uptake at 24 h: 24 h p.i.
# Excerpt: (§1) Animals were supplied by Charles River Laboratories (Wilmington, MA, USA), and were handled in compliance with the Guidelines for Care and Use of Research Animals established by the Division of Comparative Medicine and the Animal Studies Committee of Washington University School of Medicine under protocol #20–0214. Female athymic nude mice were inoculated on the right flank with 10 × 10^6 CaSki or 5 × 10^6 BxPC-3 cells. Tumors were allowed to grow until they approached approximately 100 mm^3 in volume. Radiolabeled peptides were diluted in saline to a dose of 0.37 MBq (10 μCi) per 100 μl. […] For blocking experiments, non-PEGylated peptide (100 μg in 100 μL saline) was injected ten minutes before radiotracer. Blood, lung, liver, spleen, kidney, muscle, heart, bone, and tumor were harvested. The amount of radioactivity in each organ was determined by gamma counting, and the percent injected dose per gram of tissue (% ID/g) was calculated.
# [2] = Biodistribution in mice bearing BxPC-3 xenografts; conditions: female, athymic nude, mouse, iv, total radioactivity, BxPC-3 tumor-bearing mice; for tissue uptake at 1 h: 1 h p.i.; for tissue uptake at 24 h: 24 h p.i.
# Excerpt: as §1
# [3] = Small animal PET/CT imaging, BxPC-3 tumors; conditions: female, mouse, tumor (BxPC-3 xenograft), iv, total radioactivity, athymic nude mice bearing BxPC-3 tumors, 3.7 MBq i.v., without blocking, n = 3, read-out: SUVmax of tumors
# Method: BxPC-3 cells (5 × 10^6) were inoculated in the right shoulder of female athymic nude mice 3–4 weeks before PET imaging sessions. All the experiments involving animals followed the Guidelines for Care and Use of Research Animals established by the Division of Comparative Medicine and the Animal Studies Committee of Washington University School of Medicine under protocol #20–0214. […] Mice were imaged with CT followed by static PET scans at 1, 4, and 24 h after tracer administration on an Inveon small animal PET/CT scanner (Siemens Medical Solutions, Malvern, PA, USA). Static images were collected for 20 min and reconstructed with the maximum a posteriori (MAP) reconstruction algorithm using the Inveon Reseach Workstation image display software (Siemens). Regions of interest (ROI) were selected based on co-registered anatomical CT images, and the associated radioactivity was measured using the Inveon software. The maximum standard uptake value (SUV) was calculated as the highest regional radioactivity concentration (nCi/cc) × animal weight (g)/decay-corrected amount of injected dose (nCi).
smiles,measurement,setting,value
"CC(C)C[C@H](NC(=O)[C@H](CC(=O)O)NC(=O)CNC(=O)[C@H](CCCNC(=N)N)NC(=O)[C@H](CC(C)C)NC(=O)[C@H](CC(N)=O)NC(=O)[C@@H]1CCCN1C(=O)[C@@H](NC(=O)[C@H](C)NC(=O)[C@H](CC(N)=O)NC(=O)CCOCCOCCOCCOCCOCCOCCOCCOCCOCCOCCOCCOCCOCCOCCOCCOCCOCCOCCOCCOCCOCCOCCOCCOCCOCCOCCOCCOCCNC(=O)CN1CCN(CC(=O)O)Cc2cccc(n2)CN(CC(=O)O)CC1)C(C)C)C(=O)N[C@@H](CCC(N)=O)C(=O)N[C@H](C(=O)N[C@@H](CC(C)C)C(=O)N[C@@H](C)C(=O)N[C@@H](CCC(N)=O)C(=O)N[C@@H](CCCCN)C(=O)N[C@H](C(=O)N[C@@H](C)C(=O)N[C@@H](CCCNC(=N)N)C(=O)N[C@H](C(=O)NCCOCCOCCOCCOCCOCCOCCOCCOCCOCCOCCOCCOCCOCCOCCOCCOCCOCCOCCOCCOCCOCCOCCOCCOCCOCCOCCOCCOCCC(N)=O)[C@@H](C)O)C(C)C)C(C)C [[^64Cu]Cu-PCTA-(PEG28)2-A20FMDV2, metal not drawn]",tissue uptake at 1 h,"[1]; blood, CaSki tumor-bearing mice, 0.37 MBq i.v., gamma counting, mean, n = 4, read-out: Uptake in Blood",0.54 %ID/g
same,tissue uptake at 24 h,"[1]; blood, CaSki tumor-bearing mice, 0.37 MBq i.v., read-out: Radioactivity remaining in the blood",0.53 ± 0.1 %ID/g
same,tissue uptake at 1 h,"[1]; blood, CaSki tumor-bearing mice, non-PEGylated A20FMDV2 100 μg injected 10 min before radiotracer, read-out: Uptake in Blood, 1 h Block",0.76 %ID/g
same,tissue uptake at 1 h,"[1]; bone, CaSki tumor-bearing mice, 0.37 MBq i.v., gamma counting, mean, n = 4, read-out: Uptake in Bone",0.54 %ID/g
same,tissue uptake at 1 h,"[1]; bone, CaSki tumor-bearing mice, non-PEGylated A20FMDV2 100 μg injected 10 min before radiotracer, read-out: Uptake in Bone, 1 h Block",0.39 %ID/g
same,tissue uptake at 1 h,"[1]; heart, CaSki tumor-bearing mice, 0.37 MBq i.v., gamma counting, mean, n = 4, read-out: Uptake in Heart",2.46 %ID/g
same,tissue uptake at 1 h,"[1]; heart, CaSki tumor-bearing mice, non-PEGylated A20FMDV2 100 μg injected 10 min before radiotracer, read-out: Uptake in Heart, 1 h Block",0.55 %ID/g
same,tissue uptake at 1 h,"[1]; kidney, CaSki tumor-bearing mice, 0.37 MBq i.v., gamma counting, mean, n = 4, read-out: Uptake in Kidney",114 ± 38.3 %ID/g
same,tissue uptake at 24 h,"[1]; kidney, CaSki tumor-bearing mice, 0.37 MBq i.v., read-out: Uptake in Kidney",24.4 ± 6.54 %ID/g
same,tissue uptake at 1 h,"[1]; kidney, CaSki tumor-bearing mice, non-PEGylated A20FMDV2 100 μg injected 10 min before radiotracer, read-out: Uptake in Kidney, 1 h Block",43.6 %ID/g
same,tissue uptake at 1 h,"[1]; liver, CaSki tumor-bearing mice, 0.37 MBq i.v., gamma counting, mean, n = 4, read-out: Uptake in Liver",6.81 %ID/g
same,tissue uptake at 1 h,"[1]; liver, CaSki tumor-bearing mice, non-PEGylated A20FMDV2 100 μg injected 10 min before radiotracer, read-out: Uptake in Liver, 1 h Block",3.04 %ID/g
same,tissue uptake at 1 h,"[1]; lung, CaSki tumor-bearing mice, 0.37 MBq i.v., gamma counting, mean, n = 4, read-out: Uptake in Lung",3.76 %ID/g
same,tissue uptake at 1 h,"[1]; lung, CaSki tumor-bearing mice, non-PEGylated A20FMDV2 100 μg injected 10 min before radiotracer, read-out: Uptake in Lung, 1 h Block",1.43 %ID/g
same,tissue uptake at 1 h,"[1]; muscle, CaSki tumor-bearing mice, 0.37 MBq i.v., gamma counting, mean, n = 4, read-out: Uptake in Muscle",1.23 %ID/g
same,tissue uptake at 1 h,"[1]; muscle, CaSki tumor-bearing mice, non-PEGylated A20FMDV2 100 μg injected 10 min before radiotracer, read-out: Uptake in Muscle, 1 h Block",0.43 %ID/g
same,tissue uptake at 1 h,"[1]; spleen, CaSki tumor-bearing mice, 0.37 MBq i.v., gamma counting, mean, n = 4, read-out: Uptake in Spleen",0.63 %ID/g
same,tissue uptake at 1 h,"[1]; spleen, CaSki tumor-bearing mice, non-PEGylated A20FMDV2 100 μg injected 10 min before radiotracer, read-out: Uptake in Spleen, 1 h Block",0.54 %ID/g
same,tissue uptake at 1 h,"[1]; tumor (CaSki xenograft), 0.37 MBq i.v., gamma counting, mean, n = 4, read-out: Tumor Uptake",1.63 ± 0.53 %ID/g
same,tissue uptake at 1 h,"[1]; tumor (CaSki xenograft), non-PEGylated A20FMDV2 100 μg injected 10 min before radiotracer, read-out: Tumor uptake, 1 h Block",0.67 ± 0.26 %ID/g
same,tissue uptake at 1 h,"[2]; blood, 0.37 MBq i.v., gamma counting, mean, n = 4, read-out: Uptake in Blood",0.27 %ID/g
same,tissue uptake at 1 h,"[2]; blood, non-PEGylated A20FMDV2 100 μg injected 10 min before radiotracer, read-out: Uptake in Blood, 1 h Block",0.27 %ID/g
same,tissue uptake at 1 h,"[2]; bone, 0.37 MBq i.v., gamma counting, mean, n = 4, read-out: Uptake in Bone",0.38 %ID/g
same,tissue uptake at 1 h,"[2]; bone, non-PEGylated A20FMDV2 100 μg injected 10 min before radiotracer, read-out: Uptake in Bone, 1 h Block",0.66 %ID/g
same,tissue uptake at 1 h,"[2]; heart, 0.37 MBq i.v., gamma counting, mean, n = 4, read-out: Uptake in Heart",1.9 %ID/g
same,tissue uptake at 1 h,"[2]; heart, non-PEGylated A20FMDV2 100 μg injected 10 min before radiotracer, read-out: Uptake in Heart, 1 h Block",0.27 %ID/g
same,tissue uptake at 1 h,"[2]; 0.37 MBq i.v., gamma counting, mean, n = 4, read-out: Tumor Uptake",3.86 ± 0.58 %ID/g
same,tissue uptake at 1 h,"[2]; kidney, 0.37 MBq i.v., gamma counting, mean, n = 4, read-out: Uptake in Kidney",105 ± 13.6 %ID/g
same,tissue uptake at 24 h,"[2]; kidney, 0.37 MBq i.v., read-out: Uptake in Kidney",28.6 ± 8.45 %ID/g
same,tissue uptake at 1 h,"[2]; kidney, non-PEGylated A20FMDV2 100 μg injected 10 min before radiotracer, read-out: Uptake in Kidney, 1 h Block",80.6 %ID/g
same,tissue uptake at 1 h,"[2]; liver, 0.37 MBq i.v., gamma counting, mean, n = 4, read-out: Uptake in Liver",1.94 %ID/g
same,tissue uptake at 1 h,"[2]; liver, non-PEGylated A20FMDV2 100 μg injected 10 min before radiotracer, read-out: Uptake in Liver, 1 h Block",1.68 %ID/g
same,tissue uptake at 1 h,"[2]; lung, 0.37 MBq i.v., gamma counting, mean, n = 4, read-out: Uptake in Lung",2.58 %ID/g
same,tissue uptake at 1 h,"[2]; lung, non-PEGylated A20FMDV2 100 μg injected 10 min before radiotracer, read-out: Uptake in Lung, 1 h Block",1.25 %ID/g
same,tissue uptake at 1 h,"[2]; muscle, 0.37 MBq i.v., gamma counting, mean, n = 4, read-out: Uptake in Muscle",1.13 %ID/g
same,tissue uptake at 1 h,"[2]; muscle, non-PEGylated A20FMDV2 100 μg injected 10 min before radiotracer, read-out: Uptake in Muscle, 1 h Block",0.28 %ID/g
same,tissue uptake at 1 h,"[2]; spleen, 0.37 MBq i.v., gamma counting, mean, n = 4, read-out: Uptake in Spleen",0.28 %ID/g
same,tissue uptake at 1 h,"[2]; spleen, non-PEGylated A20FMDV2 100 μg injected 10 min before radiotracer, read-out: Uptake in Spleen, 1 h Block",0.24 %ID/g
same,tissue uptake at 4 h,"[2]; tumor (BxPC-3 xenograft), 0.37 MBq i.v., 4 h p.i.",3.09 ± 0.77 %ID/g
same,tissue uptake at 24 h,"[2]; tumor (BxPC-3 xenograft), 0.37 MBq i.v., read-out: Tumor Uptake",2.45 ± 0.57 %ID/g
same,tissue uptake at 1 h,"[2]; tumor (BxPC-3 xenograft), non-PEGylated A20FMDV2 100 μg injected 10 min before radiotracer, read-out: Tumor uptake, 1 h Block",0.75 ± 0.09 %ID/g
same,SUV at 1 h,[3]; PET at 1 h,0.46 ± 0.04 SUV
same,SUV at 4 h,[3]; PET at 4 h,0.54 ± 0.05 SUV
same,SUV at 24 h,[3]; PET at 24 h,0.74 ± 0.21 SUV
